The values below come from patent JP2014043405A (dated 2014).

The target in one experiment is T1, マウスFcγRIIb (mouse, UniProt P08101 30-210, limits assumed).
T1 construct: also called mouse FcγRIIb
T1 sequence (looked up): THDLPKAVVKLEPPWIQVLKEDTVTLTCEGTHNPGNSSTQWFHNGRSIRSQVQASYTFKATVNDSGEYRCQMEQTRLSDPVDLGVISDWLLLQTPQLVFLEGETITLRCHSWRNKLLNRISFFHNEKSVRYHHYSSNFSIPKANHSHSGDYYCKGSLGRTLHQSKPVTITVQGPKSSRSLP
Nature of the experiment: SPR, Biacore; antibody captured on immobilised mouse FcRn, FcγR as analyte, pH 7.4, 25C.

The next experiment concerns the target T2, マウスFcγRI (mouse, UniProt P26151 25-297, limits assumed).
T2 construct: also called mouse FcγRI
T2 sequence (looked up): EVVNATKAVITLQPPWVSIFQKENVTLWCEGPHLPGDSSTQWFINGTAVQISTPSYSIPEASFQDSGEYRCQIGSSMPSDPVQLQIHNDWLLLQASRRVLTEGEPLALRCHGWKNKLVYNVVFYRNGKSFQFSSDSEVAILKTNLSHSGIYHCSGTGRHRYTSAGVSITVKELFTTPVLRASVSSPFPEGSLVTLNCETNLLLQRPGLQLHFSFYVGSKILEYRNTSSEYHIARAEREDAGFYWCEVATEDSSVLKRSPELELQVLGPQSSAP
The experiment is described as above.

The target in a further experiment is T3, マウスFcγRIII (mouse, UniProt P08508 31-215, limits assumed).
T3 construct: also called mouse FcγRIII
T3 sequence (looked up): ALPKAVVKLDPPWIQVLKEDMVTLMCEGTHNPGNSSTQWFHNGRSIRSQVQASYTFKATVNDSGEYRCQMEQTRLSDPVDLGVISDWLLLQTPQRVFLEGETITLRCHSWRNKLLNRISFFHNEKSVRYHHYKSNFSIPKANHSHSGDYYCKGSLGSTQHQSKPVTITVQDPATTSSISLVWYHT
The experiment is described as above.

The target in a further experiment is T4, ヒトFcγRIIb (human, UniProt P31994 43-217).
T4 construct: extracellular domain; for the crystals it was expressed with kifunensine and its N-glycans trimmed with Endo F1; also called FcγRIIb細胞外領域
T4 sequence (looked up): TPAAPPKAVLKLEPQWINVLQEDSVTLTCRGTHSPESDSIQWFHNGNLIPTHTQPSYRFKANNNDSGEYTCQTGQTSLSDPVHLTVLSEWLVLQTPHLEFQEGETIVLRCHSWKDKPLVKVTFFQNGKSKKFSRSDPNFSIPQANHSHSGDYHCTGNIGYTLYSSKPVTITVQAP
Kind of experiment: SPR; KD for FcγRIIaH divided by KD for FcγRIIb. (In general: Surface plasmon resonance follows binding to a sensor surface in real time, without labels.)

B1: mPM1-mIgG1-mF3 (antibody)
heavy: DVQLQESGPVLVKPSQSLSLTCTVTGYSITSDHAWSWIRQFPGNKLEWMGYISYSGITTYNPSLKSRISITRDTSKNQFFLQLNSVTTGDTSTYYCARSLARTTAMDYWGQGTSVTVSSAKTTPPSVYPLAPGSAAQTNSMVTLGCLVKGYFPEPVTVTWNSGSLSSGVHTFPAVLQSDLYTLSSSVTVPSSTWPSETVTCNVAHPASSTKVDKKIVPRDCGCKPCICTVPEVSSVFIFPPKPKDVLYITLEPKVTCVVVDISKDDPEVQFSWFVDDVEVHTAQTQPREEQFNSTFRSVSELPIMHQDWLNGKEFKCRVNSAAFPAPIEKTISKTKGRPKAPQVYTIPPPKEQMAKDKVSLTCMITDFFPEDITVEWQWNGQPAENYKNTQPIMDTDGSYFVYSKLNVQKSNWEAGNTFTCSVLHEGLKFHHTEKSLSHSPGK
light: DIQMTQTTSSLSASLGDRVTISCRASQDISSYLNWYQQKPDGTIKLLIYYTSRLHSGVPSRFSGSGSGTDYSLTINNLEQEDIATYFCQQGNTLPYTFGGGTKLEIKRADAAPTVSIFPPSSEQLTSGGASVVCFLNNFYPKDINVKWKIDGSERQNGVLNSWTDQDSKDSTYSMSSTLTLTKDEYERHNSYTCEATHKTSTSPIVKSFNRNEC
notes: mouse IgG1; also called mPM1H-mIgG1-mF3/mPM1L-mk1
Regarding B1, the binding result with マウスFcγRIIb is reported as “binds”; with マウスFcγRI, “no binding”; in the experiment with マウスFcγRIII it was “binds”.

B2: IL6R-BP480/IL6R-L (antibody)
chain 1: QVQLQESGPGLVKPSETLSLTCAVSGHSISHDHAWSWVRQPPGEGLEWIGFISYSGITNYNPSLQGRVTISRDNSKNTLYLQMNSLRAEDTAVYYCARSLARTTAMDYWGEGTLVTVSSASTKGPSVFPLAPSSKSTSGGTAALGCLVKDYFPEPVTVSWNSGALTSGVHTFPAVLQSSGLYSLSSVVTVPSSSLGTQTYICNVNHKPSNTKVDKKVEPKSCDKTHTCPPCPAPDLLGDDSVFLFPPKPKDTLMISRTPEVTCVVVDLSEDDGEVKFNWYVDGVEVHNAKTKPREEQYNSTYRVVSVLTVLHQDWLNGKEYKCKVSNKALPAPIEKTISKAKGQPREPQVYTLPPSRDELTKNQVSLTCLVKGFYPSDIAVEWESNGQPENNYKTTPPVLDSDGSFFLYSKLTVDKSRWQQGNVFSCSVMHEALHNHYTQESLSLSP
chain 2: not shown
Consider B2, for which, in the experiment with ヒトFcγRIIb, the “KD (IIaH)/KD (IIb)” value came out at 108 ratio.

B3: IL6R-BP426/IL6R-L (antibody)
chain 1: QVQLQESGPGLVKPSETLSLTCAVSGHSISHDHAWSWVRQPPGEGLEWIGFISYSGITNYNPSLQGRVTISRDNSKNTLYLQMNSLRAEDTAVYYCARSLARTTAMDYWGEGTLVTVSSASTKGPSVFPLAPSSKSTSGGTAALGCLVKDYFPEPVTVSWNSGALTSGVHTFPAVLQSSGLYSLSSVVTVPSSSLGTQTYICNVNHKPSNTKVDKKVEPKSCDKTHTCPPCPAPDLLGDDSVFLFPPKPKDTLMISRTPEVTCVVVDVAEDDGEVKFNWYVDGVEVHNAKTKPREEQYNSTYRVVSVLTVLHQDWLNGKEYKCKVSNKALPRPIEKTISKAKGQPREPQVYTLPPSRDELTKNQVSLTCLVKGFYPSDIAVEWESNGQPENNYKTTPPVLDSDGSFFLYSKLTVDKSRWQQGNVFSCSVMHEALHNHYTQESLSLSP
chain 2: not shown
With B3, in the experiment with ヒトFcγRIIb, the “KD (IIaH)/KD (IIb)” value worked out at 8360 ratio.
